Details: acetylation at K3

protein VII: K3Q acetyl mimic
localisation_or_trafficking: no change

From publication PMC11852808
